What all share (experiment): cell-based or functional assay
Test [1] deals with endogenous full-length hepsin on the surface of LnCaP-17 cells (human) (UniProt P05981).
Test [2] addresses full-length hepsin on the surface of LnCaP-34 cells (transfected full-length hepsin with C-terminal Flag tag plus endogenous hepsin) (human) (UniProt P05981).
Test [3] has as its target pro-uPA (pro-urokinase-type plasminogen activator, single-chain zymogen form of uPA) (UniProt P00749).

Chain of endogenous full-length hepsin on the surface of LnCaP-17 cells (human) (P05981 whole entry): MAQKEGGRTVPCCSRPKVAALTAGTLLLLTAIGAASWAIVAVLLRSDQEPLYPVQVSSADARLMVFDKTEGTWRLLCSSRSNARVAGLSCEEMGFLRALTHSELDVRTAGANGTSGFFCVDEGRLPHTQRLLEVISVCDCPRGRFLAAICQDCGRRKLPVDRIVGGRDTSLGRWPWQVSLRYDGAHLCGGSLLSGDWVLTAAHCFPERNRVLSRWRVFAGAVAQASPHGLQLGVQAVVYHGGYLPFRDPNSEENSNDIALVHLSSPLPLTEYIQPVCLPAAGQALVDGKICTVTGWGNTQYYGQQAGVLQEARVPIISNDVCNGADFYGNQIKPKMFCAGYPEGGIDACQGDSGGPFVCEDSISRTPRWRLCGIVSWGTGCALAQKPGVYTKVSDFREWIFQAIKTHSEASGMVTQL
Chain of full-length hepsin on the surface of LnCaP-34 cells (transfected full-length hepsin with C-terminal Flag tag plus endogenous hepsin) (human) (P05981 whole entry): as above

For “KD1, Kunitz domain-1 derived from HAI-1B (from UniProt O43278 246-303)”, in test [1], the Rate of pro-uPA activation per 10^6 cells, LnCaP-17, with 1 uM KD1 was 0.2 nM uPA hr^-1. Also, the Rate of pro-uPA activation per 10^6 cells, LnCaP-34, with 1 uM KD1 in test [2] is 0.2 nM uPA hr^-1.
The substance “endogenous full-length hepsin on the surface of LnCaP-17 cells (from UniProt P05981 1-417) (enzyme)” gave a Rate of pro-uPA activation per 10^6 cells, LnCaP-17, control in test [3] of 2.4 nM uPA hr^-1.
As for “full-length hepsin on the surface of LnCaP-34 cells (transfected full-length hepsin with C-terminal Flag tag plus endogenous hepsin) (from UniProt P05981 1-417) (enzyme)”, the Rate of pro-uPA activation per 10^6 cells, LnCaP-34, control in test [3] was found to be 6.6 nM uPA hr^-1.
